T1: Myc-tagged CARMA1-CARD (wild type) (mouse) (UniProt Q8CIS0)
T1 sequence: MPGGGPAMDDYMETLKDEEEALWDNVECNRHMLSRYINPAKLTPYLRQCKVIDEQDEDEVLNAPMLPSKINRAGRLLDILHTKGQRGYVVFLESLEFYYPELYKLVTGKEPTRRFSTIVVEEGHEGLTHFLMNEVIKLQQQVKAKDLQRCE

B1: full-length BCL10 E50A (pEGFP-C1) (natural protein)
chain: MEAPAPSLTEEDLTEVKKDALENLRVYLCEKIIAERHFDHLRAKKILSRADTEEISCRTSSRKRAGKLLDYLQENPRGLDTLVESIRREKTQSFLIQKITDEVLKLRNIKLEHLKGLKCSSCEPFAAGATNNLSRCNSDESNLSEKQRASTVMYHPEGESSTAPFFSMASSLNLPVLEVGRTENSSFSSATLPRPGDPGAPPLPPDLRLEEGGSCGNSSEMFLPLRSRALSRQ
B2: full-length BCL10 E54A (pEGFP-C1) (natural protein)
chain: MEAPAPSLTEEDLTEVKKDALENLRVYLCEKIIAERHFDHLRAKKILSREDTEAISCRTSSRKRAGKLLDYLQENPRGLDTLVESIRREKTQSFLIQKITDEVLKLRNIKLEHLKGLKCSSCEPFAAGATNNLSRCNSDESNLSEKQRASTVMYHPEGESSTAPFFSMASSLNLPVLEVGRTENSSFSSATLPRPGDPGAPPLPPDLRLEEGGSCGNSSEMFLPLRSRALSRQ
B3: full-length BCL10 E53A (pEGFP-C1) (natural protein)
chain: MEAPAPSLTEEDLTEVKKDALENLRVYLCEKIIAERHFDHLRAKKILSREDTAEISCRTSSRKRAGKLLDYLQENPRGLDTLVESIRREKTQSFLIQKITDEVLKLRNIKLEHLKGLKCSSCEPFAAGATNNLSRCNSDESNLSEKQRASTVMYHPEGESSTAPFFSMASSLNLPVLEVGRTENSSFSSATLPRPGDPGAPPLPPDLRLEEGGSCGNSSEMFLPLRSRALSRQ

biological target: T1, Myc-tagged CARMA1-CARD (wild type) (mouse)

Binder | NF-κB activation-dependent dual luciferase reporter in HEK293T, full-length BCL10 mutant against wild type (CARMA1 not co-transfected) [%]
B1 | < 40
B2 | < 40
B3 | < 40
